Assay [1] has as its target HRgpA-6H (Porphyromonas gingivalis) (UniProt P28784). The experiment in a line: ELISA, FASEBA Fab supernatant on coated HRgpA-6H.
Assay [2] has the same target. Kind of assay: ELISA on coated HRgpA-6H, OD relative to parental Fab. On the technique in general: In an ELISA, binding on a coated surface is turned into a signal by an enzyme label.

Substitutions are numbered along the chain they refer to. Numbers in names are those of the source. Where “and” joins values, the source holds several entries; their conditions need not be identical. Equal values may be shown once.

Sequence of UniProt P28784 (P28784 228-860 limits assumed): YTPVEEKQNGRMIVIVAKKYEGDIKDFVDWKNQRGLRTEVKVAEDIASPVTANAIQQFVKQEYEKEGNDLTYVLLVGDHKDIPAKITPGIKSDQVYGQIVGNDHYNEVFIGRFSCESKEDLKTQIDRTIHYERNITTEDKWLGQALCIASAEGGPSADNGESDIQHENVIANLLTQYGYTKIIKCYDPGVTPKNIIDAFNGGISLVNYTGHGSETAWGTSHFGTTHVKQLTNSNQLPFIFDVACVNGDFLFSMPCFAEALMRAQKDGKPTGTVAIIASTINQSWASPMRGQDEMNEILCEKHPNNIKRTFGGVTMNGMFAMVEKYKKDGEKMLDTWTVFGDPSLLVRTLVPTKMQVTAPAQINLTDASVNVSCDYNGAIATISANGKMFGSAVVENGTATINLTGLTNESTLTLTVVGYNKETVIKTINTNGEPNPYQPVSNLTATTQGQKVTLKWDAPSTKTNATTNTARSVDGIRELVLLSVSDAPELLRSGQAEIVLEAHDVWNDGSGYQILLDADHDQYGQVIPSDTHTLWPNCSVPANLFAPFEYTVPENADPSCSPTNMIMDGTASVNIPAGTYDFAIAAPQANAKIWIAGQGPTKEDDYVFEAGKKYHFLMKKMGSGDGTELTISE

B1: KB001 mouse Fab variant VL H90W (Fab, V domains shown)
VH: EVQLKQSGPGLVAPSQSLSITCTVSGFSLSIYSVHWVRQPPGKGLEWLGMIWGGGSSDYNSALKSRLSISKDNSKSQVFLKMNSLQTDDTAMYYCARNGNFYAMDYWGQGTSVTVSS
VL: QIVLTQSPAIMSASLGERVTMTCTASSSVSSSFLHWYQQKPGSSPQLWIYSTSNLASGVPARFSGSGSGTSYSLTISSMEAEDAATYYCWQYHHSPYIYTFGGGTKLEIK
With B1, in assay [1], the OD450 nm was determined as 0.763. In addition, in assay [2], the Ratio OD(Variant)/OD(WT) was determined as 0.886 fold.

B2: KB001 mouse Fab variant VL S95W (Fab, V domains shown)
VH: B1 VH
VL: B1 VL with W90H, S95W
Turning to B2, the OD450 nm in assay [1] is 0.804 and 0.79. In assay [2], the Ratio OD(Variant)/OD(WT) was 0.875 fold and 0.86 fold.

B3: KB001 mouse Fab variant VL T100V (Fab, V domains shown)
VH: B1 VH
VL: B1 VL with W90H, T100V
Consider B3, for which the OD450 nm in assay [1] is 0.461 and 0.428. Moreover, in assay [2], the Ratio OD(Variant)/OD(WT) is 0.881 fold and 0.818 fold.

B4: KB001 mouse Fab variant VL I98M (Fab, V domains shown)
VH: B1 VH
VL: B1 VL with W90H, I98M
Turning to B4, the OD450 nm in assay [1] amounted to 0.729. In assay [2], the Ratio OD(Variant)/OD(WT) amounted to 0.833 fold.

B5: KB001 mouse Fab variant VL Y97S (Fab, V domains shown)
VH: B1 VH
VL: B1 VL with W90H, Y97S
Consider B5, for which the OD450 nm in assay [1] was 0.633. In assay [2], the Ratio OD(Variant)/OD(WT) came out at 0.802 fold.

B6: KB001 mouse Fab variant VL T100I (Fab, V domains shown)
VH: B1 VH
VL: B1 VL with W90H, T100I
For B6, the OD450 nm in assay [1] amounted to 0.493. Also, in assay [2], the Ratio OD(Variant)/OD(WT) worked out at 0.942 fold.

B7: KB001 mouse Fab variant VL S95F (Fab, V domains shown)
VH: B1 VH
VL: B1 VL with W90H, S95F
On to B7, for which the OD450 nm in assay [1] stood at 0.837. Besides, in assay [2], the Ratio OD(Variant)/OD(WT) was determined as 0.911 fold.

B8: KB001 mouse Fab variant VL S95E (Fab, V domains shown)
VH: B1 VH
VL: B1 VL with W90H, S95E
Take B8: the OD450 nm in assay [1] was 0.855 and 0.82. Further, the Ratio OD(Variant)/OD(WT) in assay [2] is 0.931 fold and 0.893 fold.

B9: KB001 mouse Fab variant VL S95H (Fab, V domains shown)
VH: B1 VH
VL: B1 VL with W90H, S95H
With B9, in assay [1], the OD450 nm was determined as 0.8. Also, the Ratio OD(Variant)/OD(WT) in assay [2] worked out at 0.871 fold.

B10: KB001 mouse Fab variant VL S95Y (Fab, V domains shown)
VH: B1 VH
VL: B1 VL with W90H, S95Y
B10 returned an OD450 nm in assay [1] of 0.827. Moreover, in assay [2], the Ratio OD(Variant)/OD(WT) amounted to 0.9 fold.

B11: KB001 mouse Fab variant VL Y97F (Fab, V domains shown)
VH: B1 VH
VL: B1 VL with W90H, Y97F
In the case of B11, in assay [1], the OD450 nm was 0.75 and 0.756. Further, the Ratio OD(Variant)/OD(WT) in assay [2] was 0.951 fold and 0.958 fold.

B12: KB001 mouse Fab variant VL I98V (Fab, V domains shown)
VH: B1 VH
VL: B1 VL with W90H, I98V
For the molecule B12, the OD450 nm in assay [1] is 0.832 and 0.838 and 0.787. The Ratio OD(Variant)/OD(WT) in assay [2] was 0.951 fold and 0.958 fold and 0.899 fold.

B13: KB001 mouse Fab variant VL S95N (Fab, V domains shown)
VH: B1 VH
VL: B1 VL with W90H, S95N
As for B13, the OD450 nm in assay [1] is 0.863 and 0.884. For the same molecule, in assay [2], the Ratio OD(Variant)/OD(WT) was 0.94 fold and 0.962 fold.

B14: KB001 mouse Fab variant VL T100P (Fab, V domains shown)
VH: B1 VH
VL: B1 VL with W90H, T100P
B14: the OD450 nm in assay [1] came out at 0.46. In addition, the Ratio OD(Variant)/OD(WT) in assay [2] was 0.879 fold.

B15: KB001 mouse Fab variant VL H94Y (Fab, V domains shown)
VH: B1 VH
VL: B1 VL with W90H, H94Y
In the case of B15, the OD450 nm in assay [1] turned out to be 0.865. The Ratio OD(Variant)/OD(WT) in assay [2] stood at 0.942 fold.

B16: KB001 mouse Fab variant VL S95A (Fab, V domains shown)
VH: B1 VH
VL: B1 VL with W90H, S95A
Take B16: the OD450 nm in assay [1] was 0.83 and 0.872. The Ratio OD(Variant)/OD(WT) in assay [2] is 0.904 fold and 0.949 fold.

B17: KB001 mouse Fab variant VL I98R (Fab, V domains shown)
VH: B1 VH
VL: B1 VL with W90H, I98R
Turning to B17, in assay [1], the OD450 nm was 0.726 and 0.722. Further, in assay [2], the Ratio OD(Variant)/OD(WT) is 0.83 fold and 0.825 fold.

B18: KB001 mouse Fab variant VL S95C (Fab, V domains shown)
VH: B1 VH
VL: B1 VL with W90H, S95C
For the molecule B18, in assay [1], the OD450 nm is 0.849. The Ratio OD(Variant)/OD(WT) in assay [2] came out at 0.924 fold.

B19: KB001 mouse Fab variant VL Q91M (Fab, V domains shown)
VH: B1 VH
VL: B1 VL with W90H, Q91M
In the case of B19, the OD450 nm in assay [1] is 0.757. Further, the Ratio OD(Variant)/OD(WT) in assay [2] turned out to be 0.879 fold.

B20: KB001 mouse Fab variant VL Y97H (Fab, V domains shown)
VH: B1 VH
VL: B1 VL with W90H, Y97H
The molecule B20 returned an OD450 nm in assay [1] of 0.775. Besides, in assay [2], the Ratio OD(Variant)/OD(WT) was 0.982 fold.

B21: KB001 mouse Fab variant VL Y97K (Fab, V domains shown)
VH: B1 VH
VL: B1 VL with W90H, Y97K
Regarding B21, the OD450 nm in assay [1] was determined as 0.654. Moreover, in assay [2], the Ratio OD(Variant)/OD(WT) came out at 0.829 fold.

B22: KB001 mouse Fab variant VL S95Q (Fab, V domains shown)
VH: B1 VH
VL: B1 VL with W90H, S95Q
B22 had an OD450 nm in assay [1] of 0.893. In assay [2], the Ratio OD(Variant)/OD(WT) was determined as 0.972 fold.

B23: KB001 parental mouse Fab (FASEBA), WT clone (Fab, V domains shown)
VH: B1 VH
VL: B1 VL with W90H
For the molecule B23, the OD450 nm in assay [1] is 0.9 and 0.889. For the same molecule, the Ratio OD(Variant)/OD(WT) in assay [2] was 0.98 fold and 0.968 fold.

B24: KB001 mouse Fab variant VL H93N (Fab, V domains shown)
VH: B1 VH
VL: B1 VL with W90H, H93N
For the molecule B24, the OD450 nm in assay [1] is 0.857. In addition, the Ratio OD(Variant)/OD(WT) in assay [2] was 0.91 fold.

B25: KB001 mouse Fab variant VL I98L (Fab, V domains shown)
VH: B1 VH
VL: B1 VL with W90H, I98L
B25 showed an OD450 nm in assay [1] of 0.836. The Ratio OD(Variant)/OD(WT) in assay [2] worked out at 0.955 fold.

B26: KB001 mouse Fab variant VL Y97R (Fab, V domains shown)
VH: B1 VH
VL: B1 VL with W90H, Y97R
In assay [1], B26 returned an OD450 nm of 0.769. Moreover, the Ratio OD(Variant)/OD(WT) in assay [2] was 0.975 fold.

B27: KB001 mouse Fab variant VL S95I (Fab, V domains shown)
VH: B1 VH
VL: B1 VL with W90H, S95I
Consider B27, for which, in assay [1], the OD450 nm is 0.846 and 0.817 and 0.791. The Ratio OD(Variant)/OD(WT) in assay [2] is 0.921 fold and 0.889 fold and 0.861 fold.

B28: KB001 mouse Fab variant VL Y97V (Fab, V domains shown)
VH: B1 VH
VL: B1 VL with W90H, Y97V
In assay [1], B28 showed an OD450 nm of 0.662. For the same molecule, the Ratio OD(Variant)/OD(WT) in assay [2] was 0.839 fold.

B29: KB001 mouse Fab variant VL Q91E (Fab, V domains shown)
VH: B1 VH
VL: B1 VL with W90H, Q91E
For the molecule B29, the OD450 nm in assay [1] was 0.709 and 0.694 and 0.701. The Ratio OD(Variant)/OD(WT) in assay [2] was 0.823 fold and 0.806 fold and 0.814 fold.

B30: KB001 mouse Fab variant VL Y97Q (Fab, V domains shown)
VH: B1 VH
VL: B1 VL with W90H, Y97Q
Turning to B30, in assay [1], the OD450 nm was 0.687. In addition, in assay [2], the Ratio OD(Variant)/OD(WT) came to 0.871 fold.

B31: KB001 mouse Fab variant VL Y97I (Fab, V domains shown)
VH: B1 VH
VL: B1 VL with W90H, Y97I
B31 showed an OD450 nm in assay [1] of 0.667. Further, the Ratio OD(Variant)/OD(WT) in assay [2] stood at 0.845 fold.

B32: KB001 mouse Fab variant VL Y97L (Fab, V domains shown)
VH: B1 VH
VL: B1 VL with W90H, Y97L
In turn, B32 came in with an OD450 nm in assay [1] of 0.739. Moreover, in assay [2], the Ratio OD(Variant)/OD(WT) amounted to 0.937 fold.

B33: KB001 mouse Fab variant VL Y92D (Fab, V domains shown)
VH: B1 VH
VL: B1 VL with W90H, Y92D
In the case of B33, in assay [1], the OD450 nm was 0.758. The Ratio OD(Variant)/OD(WT) in assay [2] was found to be 0.805 fold.

B34: KB001 mouse Fab variant VL S95T (Fab, V domains shown)
VH: B1 VH
VL: B1 VL with W90H, S95T
Regarding B34, in assay [1], the OD450 nm came out at 0.871. Further, in assay [2], the Ratio OD(Variant)/OD(WT) amounted to 0.948 fold.

B35: KB001 mouse Fab variant VL Y92N (Fab, V domains shown)
VH: B1 VH
VL: B1 VL with W90H, Y92N
B35: in assay [1], the OD450 nm is 0.773. In addition, the Ratio OD(Variant)/OD(WT) in assay [2] came out at 0.821 fold.

B36: KB001 mouse Fab variant VL H94F (Fab, V domains shown)
VH: B1 VH
VL: B1 VL with W90H, H94F
B36: the OD450 nm in assay [1] was 0.77. Besides, the Ratio OD(Variant)/OD(WT) in assay [2] was 0.838 fold.

Source of the values: patent US20240400654A1.
